Reference: US20250195658A1 (ST JUDE CHILDREN S RESEARCH HOSPITAL, published 2025)
No end group written: not given here. *: point of attachment. Biotin = O=C1N[C@H]2[C@H](CS[C@H]2CCCCC(=O)*)N1; Ahx = NCCCCCC(=O)O

Tests used:
[1] = target: T1, cell surface glucose-regulated-protein 78 (GRP78) (UniProt P11021 19-654, limits assumed); test: flow cytometry on cell lines, 2-step staining with Streptavidin PE
T1 construct: whole, on cells; also called GRP78 antigen; HSPA5
Protocol: (§1) Flow cytometric analysis. Cells were stained with fluorochrome-conjugated primary antibodies for 30 min at room temperature and washed with FACS buffer (5% FBS in 1×PBS) prior to analysis. Cell surface GRP78 was detected by a GRP78-specific peptide with an N-terminal Biotin tag (Biotin-Ahx-[…]; SEQ ID NO: 126) was obtained from Genscript (Piscataway, NJ) in combination with Streptavidin PE (BioLegend, San Diego, CA. CCAT #405204) using a 2-step staining protocol. Cells were incubated with GRP78 peptide for 30 minutes at room temperature, protected from light. Cells were washed twice prior to staining with additional antibodies. Recombinant CD123 Recombinant Human IL3RA protein conjugated to APC (Creative BioMart, CAT #IL3RA-3248HA) was used to detect CD123 scFv binding. The following antibodies were purchased from BD Biosciences: CCR7 Pacific Blue (BD Pharmigen, Clone G043H7 CAT #353210), CD45RO PerCP-Cy5.5 (BD Pharmigen, Clone UCHL1, CAT #560607), CD123 APC (BD Pharmigen, Clone 7G3, CAT #560087), CD3 BV421 (BD Horizon, Clone SK7, CAT #563797), CD3 BV786 (BD Horizon, Clone SK7, CAT #563800), CD19 PE-Cy7 (BD Pharmigen, Clone HIB19, CAT #560728), CD20 BV650 (BD Horizon, Clone 2H7, CAT #563780). […]

[2] = target: T2, Recombinant Human IL3RA protein conjugated to APC (Creative BioMart, CAT #IL3RA-3248HA) (human, UniProt P26951 19-305, limits assumed, conjugated to APC); test: flow cytometry of CAR T cells stained with APC-conjugated recombinant human IL3RA (FIG. 2B)
T2 construct: also called recombinant CD123 protein; Recombinant CD123
T2 sequence (looked up): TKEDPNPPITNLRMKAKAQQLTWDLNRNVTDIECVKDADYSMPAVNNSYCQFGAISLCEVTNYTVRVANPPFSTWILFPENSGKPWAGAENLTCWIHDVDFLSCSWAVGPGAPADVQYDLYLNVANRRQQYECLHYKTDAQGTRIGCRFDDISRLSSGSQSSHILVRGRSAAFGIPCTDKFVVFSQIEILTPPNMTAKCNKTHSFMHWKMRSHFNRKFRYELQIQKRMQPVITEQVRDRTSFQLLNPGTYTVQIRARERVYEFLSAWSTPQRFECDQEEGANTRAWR
Protocol: as §1

T1 sequence (P11021 19-654 limits assumed): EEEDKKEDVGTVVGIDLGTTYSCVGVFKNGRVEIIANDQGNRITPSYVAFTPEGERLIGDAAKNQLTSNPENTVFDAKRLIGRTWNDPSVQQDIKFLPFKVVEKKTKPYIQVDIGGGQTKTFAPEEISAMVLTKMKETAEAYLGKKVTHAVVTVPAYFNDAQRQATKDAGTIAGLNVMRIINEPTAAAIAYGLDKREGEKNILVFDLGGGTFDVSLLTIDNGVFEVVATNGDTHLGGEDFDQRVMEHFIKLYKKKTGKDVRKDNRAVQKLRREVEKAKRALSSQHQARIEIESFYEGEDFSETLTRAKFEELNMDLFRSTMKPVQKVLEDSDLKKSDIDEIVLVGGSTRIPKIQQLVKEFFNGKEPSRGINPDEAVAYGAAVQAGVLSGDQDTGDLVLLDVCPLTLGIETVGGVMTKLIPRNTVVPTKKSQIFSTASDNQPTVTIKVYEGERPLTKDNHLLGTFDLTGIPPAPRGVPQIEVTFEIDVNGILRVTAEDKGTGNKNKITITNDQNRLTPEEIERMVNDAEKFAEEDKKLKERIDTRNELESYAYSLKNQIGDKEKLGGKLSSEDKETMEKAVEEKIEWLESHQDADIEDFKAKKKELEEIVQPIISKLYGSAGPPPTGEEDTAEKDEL

B1: GRP78-specific peptide with an N-terminal Biotin tag (Biotin-Ahx-CTVALPGGYVRVC) (peptide)
peptide: {Biotin-Ahx}-CTVALPGGYVRVC
modifications: cysteine pairing not given here
notes: Obtained from Genscript; Detected with Streptavidin PE in a 2-step staining; also called GRP78-biotin; GRP78 peptide
- binding result [1]: binds

B2: GRP78-G4S3-CD123-CAR (other)
chain: CTVALPGGYVRVCEFGGGGSGGGGSGGGGSAAAQVQLQQPGAELVRPGASVKLSCKASGYTFTSYWMNWVKQRPDQGLEWIGRIDPYDSETHYNQKFKDKAILTVDKSSSTAYMQLSSLTSEDSAVYYCARGNWDDYWGQGTTLTVSSGGGGSGGGGSGGGGSDVQITQSPSYLAASPGETITINCRASKSISKDLAWYQEKPGKTNKLLIYSGSTLQSGIPSRFSGSGSGTDFTLTISSLEPEDFAMYYCQQHNKYPYTFGGGTKLEIKSIEVMYPPPYLDNEKSNGTIIHVKGKHLCPSPLFPGPSKPFWVLVVVGGVLACYSLLVTVAFIIFWVRSKRSRLLHSDYMNMTPRRPGPTRKHYQPYAPPRDFAAYRSRVKFSRSADAPAYQQGQNQLYNELNLGRREEYDVLDKRRGRDPEMGGKPRRKNPQEGLYNELQKDKMAEAYSEIGMKGERRRGKGHDGLYQGLSTATKDTYDALHMQALPPR
notes: Residues from 510 on (spacer RSGVDSG, T2A, tCD19) are also left out; also called 78.(G4S)3.123; G4S2
- % of transduced T cells positive for recombinant CD123 protein [2]: 87.5%

B3: GRP78-GPcPcPc-CD123-CAR (other)
chain: CTVALPGGYVRVCEFAGSGGSGGSGGSPVPSTPPTNSSSTPPTPSPSPVPSTPPTNSSSTPPTPSPSPVPSTPPTNSSSTPPTPSPSASAAAQVQLQQPGAELVRPGASVKLSCKASGYTFTSYWMNWVKQRPDQGLEWIGRIDPYDSETHYNQKFKDKAILTVDKSSSTAYMQLSSLTSEDSAVYYCARGNWDDYWGQGTTLTVSSGGGGSGGGGSGGGGSDVQITQSPSYLAASPGETITINCRASKSISKDLAWYQEKPGKTNKLLIYSGSTLQSGIPSRFSGSGSGTDFTLTISSLEPEDFAMYYCQQHNKYPYTFGGGTKLEIKSIEVMYPPPYLDNEKSNGTIIHVKGKHLCPSPLFPGPSKPFWVLVVVGGVLACYSLLVTVAFIIFWVRSKRSRLLHSDYMNMTPRRPGPTRKHYQPYAPPRDFAAYRSRVKFSRSADAPAYQQGQNQLYNELNLGRREEYDVLDKRRGRDPEMGGKPRRKNPQEGLYNELQKDKMAEAYSEIGMKGERRRGKGHDGLYQGLSTATKDTYDALHMQALPPR
- % of transduced T cells positive for recombinant CD123 protein [2]: 83.6%
